Measurements published in article PMC10938568.

Molecular target: GST-PreScission-p62 FIR 4P (human) (UniProt Q13501)
Experiment: SPR

“His8-TEV-LC3B (1 to 125) (from UniProt Q9GZQ8 1-120) (natural protein)” showed a Kd estimated from the kinetics of 80 nM and a half-life of 20 min.
